We go through 2 molecules from patent US20220227864A1 (AVA LIFESCIENCE, published 2022).

Assay [1] has as its target T1, CLL subset 2 typical BCR on TKO cells (FIG. 1B).
T1 construct: The light chain is the VL3-21 variant and carries R110; also called CLL subset 2 BCR; BCR of interest
Briefly: FACS binding assay on TKO cells, fluorescently labeled anti-mouse IgG. The source says:
(§1) For the screening procedure, different vectors for the following heavy chain (HC) and light chain (LC) combinations of the corresponding CLL-BCRs were used in the previous transformation, and these combinations were used on the surface of the BCR reconstitution system: [0080] Control (transformation vector without BCR) (see FIG. 1A). [0081] Vector with HC/LC (VL3-21) typical of CLL subset 2 (see FIG. 1B). [0082] Vector with a non-CLL subset 2 HC/LC typical for CLL subset 2 (VL3-21; without target motif R110G) (see FIG. 1C) [0083] Vector with a HC typical for CLL subset 2/a non-CLL subset 2 LC (see FIG. 1D) [0084] Vector with a non-CLL subset 2 HC/a non-CLL subset 2 LC (see FIG. 1E) [0085] Vector with HC/LC typical for CLL subset 2 (VL3-21; including mutation R110G (target motif)) (see FIG. 1F).
(§2) In the first round of selection, supernatants from multiple clones were combined and examined with respect to their binding profile to the selection matrix. A positive binding profile is given if a specific binding to the “BCR-of-Interest” is shown. Groups showing such a profile were singulated, and the binding profile of each clone was characterized again on the selection matrix in a second round of selection. Binding of the monoclonal antibodies was verified using a FACS binding assay with a fluorescently labeled anti-mouse IgG antibody. […]

Assay [2] deals with T1, CLL subset 2 typical BCR on TKO cells …. Briefly: FACS on TKO cells expressing the BCR, hybridoma supernatant.
Source text: as §1, §2

T1 sequence (heavy, as listed by the source, chain 1 of 2): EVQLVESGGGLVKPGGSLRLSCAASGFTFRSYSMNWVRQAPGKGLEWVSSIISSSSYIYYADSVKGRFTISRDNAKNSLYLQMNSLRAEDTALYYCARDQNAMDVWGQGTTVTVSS
T1 sequence (light, as listed by the source, chain 2 of 2): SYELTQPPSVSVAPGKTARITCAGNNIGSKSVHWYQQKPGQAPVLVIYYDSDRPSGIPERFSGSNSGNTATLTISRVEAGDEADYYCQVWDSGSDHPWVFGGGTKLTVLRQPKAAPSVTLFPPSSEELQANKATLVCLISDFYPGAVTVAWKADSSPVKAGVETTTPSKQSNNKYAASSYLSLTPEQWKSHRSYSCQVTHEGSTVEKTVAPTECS

B1: AVA-mAb01 (antibody, V domains shown)
VH: QVQLQQSGPGLVQPSQSLSITCTVSGFSLTSYGIHWVRQSPGKGLEWLGVIWRGGGTDSNAAFMSRLSITKDNSKSQVFFKMNSLQADDTAIYYCARSRYDEEESMNYWGQGTSVTVSS
VL: QIVLTQSPASLSASVGETVTITCRASGNIHSYLAWYQQKQGKSPQLLVYNAKTLADGVPSRFSGSGSGTQYSLKINSLQPEDFGSYYCQHFWNTPPTFGAGTKLELK
notes: Murine monoclonal antibody from a hybridoma, detected with anti-mouse IgG; also called specific monoclonal antibody against subset-2; the selected antibody
For the molecule B1, the binding result in assay [1] is recorded as “binds”.

B2: AVA-mAb02 (antibody, V domains shown)
VH: QVQLQQPGAELVRPGVSVKISCKGSGYTFTDYAIHWVKQSHAKSLEWIGVISTYYGDSNYNQKFKGKATMTVNKSSSTAYMELARLTSDDSAIYYCSRDTSNFDYWGQGTTLTVSS
VL: DIQMTQSPSSMYASLGERVTITCKASQDINSHLTWFQQKPGKSPKTLIYRANRLVDGVPSRFSGSGSGQDYSLTISSLEYEDMGIYYCLQYDEFPRTFGGGTKLEIK
notes: Murine monoclonal antibody; Tested as hybridoma supernatant and detected with anti-mouse IgG; also called VL3-21 specific antibody
With B2, the binding result in assay [2] is reported as “binds”.
